No end group written: not given here.
T1: 15-mer peptide LGIWGCSGKLICTTT (SEQ ID NO:1) (HIV, not fully specified; cysteine pairing not given here)
T1 construct: also called U1731DB060-1; U173DB060-1
T1 peptide: LGIWGCSGKLICTTT


Legend:
[1] = molecular target: T1, 15-mer peptide LGIWGCSGKLICTTT (SEQ ID …); experiment: indirect ELISA; 15-mer peptide coated 1 ug/ml in DTT; antibody at 12 ng/ml
Description: (§1) In a first study, an ELISA was prepared in which the linear (reduced) form of the 15-mer peptide […] (SEQ ID NO:1) was coated onto a solid support and contacted with various concentrations of peptides #1, #2, #3, #4, #5, #6, #7, #8, #9Q, #10Q, and #11Q. A mouse, anti-human IgG Fc-HRP at 0.2 μg/ml was used as a secondary antibody.

[2] = molecular target: T1, 15-mer peptide LGIWGCSGKLICTTT (SEQ ID …); experiment: indirect ELISA; 15-mer peptide coated 1 ug/ml in DTT; antibody at 37 ng/ml
Description: as §1

[3] = molecular target: T1, 15-mer peptide LGIWGCSGKLICTTT (SEQ ID …); experiment: indirect ELISA; 15-mer peptide coated 1 ug/ml in DTT; antibody at 111 ng/ml
Description: as §1

[4] = molecular target: T1, 15-mer peptide LGIWGCSGKLICTTT (SEQ ID …); experiment: indirect ELISA; 15-mer peptide coated 1 ug/ml in DTT; antibody at 333 ng/ml
Description: as §1

[5] = molecular target: T1, 15-mer peptide LGIWGCSGKLICTTT (SEQ ID …); experiment: indirect ELISA; 15-mer peptide coated 1 ug/ml in DTT; antibody at 1000 ng/ml
Description: as §1

[6] = molecular target: T1, 15-mer peptide LGIWGCSGKLICTTT (SEQ ID …); experiment: indirect ELISA; 15-mer peptide coated 1 ug/ml in DTT; negative control well of this row (not explained)
Description: as §1

[7] = molecular target: gp41 of HIV isolate SF-162 (clade B clinical isolate) (HIV isolate SF-162, clade B); experiment: cell-based or functional assay
recombinant HIV gp41 [8] = molecular target: T2, recombinant HIV gp41 (HIV); experiment: indirect ELISA; gp41 coated 2 µg/ml in PBS
T2 construct: also called U7267DC080-1; U1916DG190-1
Description: (§2) Variants #9V, #10V, and #11V were prepared with substitutions in the heavy chain. These variants comprised amino acids sequences nearly identical to #9Q, #10Q, and #11Q, respectively, with the only distinction being a substitution of glutamine (Q) for valine (V) at the 5 position of the heavy chain. Exemplary peptides #10Q and #10V were tested in indirect ELISA assays to determine the EC50 values for binding to the epitope having the amino acid sequence of SEQ ID NO:1 and HIV gp41. The results of these studies are shown in Tables 6 and 7 below, as well as FIGS. 2 and 3. Target proteins U7267DC080-1 and U173DB060-1 correspond to recombinant gp41 and the 15-mer peptide […] (SEQ ID NO:1), respectively.

[9] = molecular target: T3, gp41 on the membrane of HIV-infected CD4+ cells (HIV); experiment: FACS on HIV-infected CD4+ cells, absence of sCD4
T3 construct: whole, on cells; also called CD4 cell-surface gp41
Description: (§3) For the FACS binding studies, the CD4+ cells that were infected with HIV expressed HIV viral envelope proteins on the cell membrane surfaces, e.g., gp160=gp41 and gp 120. Binding of proteins #7, #10Q, and #10V was tested in both presence and absence of soluble CD4 (sCD4).

[10] = molecular target: T3, gp41 on the membrane of HIV-infected …; experiment: FACS on HIV-infected CD4+ cells, presence of sCD4
Description: as §3

recombinant HIV gp41 [11] = molecular target: T2, recombinant HIV gp41; experiment: GenScript binding assay, EC50 vs rgp41 (summary table; per first reading the same value as in Tables 6-8)
recombinant HIV gp41 [12] = molecular target: T2, recombinant HIV gp41; experiment: indirect ELISA; gp41 coated 2 µg/ml in DTT (by the table's columns; paragraph 121 calls it the value against SEQ ID NO:1)
Description: as §2

| Binder | ELISA OD [1] [OD] | ELISA OD [2] [OD] | ELISA OD [3] [OD] | ELISA OD [4] [OD] | ELISA OD [5] [OD] | ELISA OD (Neg. Cont.) [6] [OD] | IC value vs SF 162 (µg/ml) in PBMC based in vitro assays [7] [µg/mL] | EC50 (recombinant HIV gp41 [8]) [µg/mL] | Fluorescent (FACS) counts [9] [counts] | Fluorescent (FACS) counts [10] [counts] | EC50 (recombinant HIV gp41 [11]) [µg/mL] | EC50 (recombinant HIV gp41 [12]) [µg/mL] |
| --- | --- | --- | --- | --- | --- | --- | --- | --- | --- | --- | --- | --- |
| HIV-binding peptide #6 (antibody, human IgG1, kappa, V domains shown, Recombinant, fully human immunoglobulin; also called U1205DB020-6) VH: QVQLQESGGGVVQPGRSLRLSCAASGFTFSSYAIHWVRQAPGKGLEWVAVISYDGSNRYYADSVKGRFTISRDNSKNTLYLQMNSLRPEDTAVYYCARDRFSAVASTPTYHNYFYMDVWGKGTTVTVSS VL: DIQMTQSPSSLSASVGDRVTITCQASQDISNYLAWYQQKPGQAPRLLIYDASNLETGVPSRFSGSGSGTDFTLTISSLQPEDLATYYCQQYDNTPYTFGQGTKLEIKR | 0.077 | 0.072 | 0.08 | 0.078 | 0.079 | 0.087 | – | – | – | – | – | – |
| HIV-binding peptide #10V (antibody, V domains shown, differs from #10Q by Q to V at position 5 of the heavy chain; also called antibody#10-5V; U6323DD200-2) VH: QVQLVESGGGVVQPGRSLRLSCAASGFTFSSYAIHWVRQAPGKGLEWVAVISYDGSNRYYADSVKGRFTISRDNSKNTLYLQMNSLRPEDTAVYYCARDRFSAVASTPTYHNYFYMDVWGKGTTVTVSS | – | – | – | – | – | – | 0.5 | 1.39 | 56600 | 29900 | 1.39 | 4.59 |
| HIV-binding peptide #3 (antibody, human IgG1, kappa, V domains shown, Recombinant, fully human immunoglobulin; also called U1205DB020-3) VH: QVQLQESGGGVVQPGRSLRLSCAASGFTFSSYAIHWVRQAPGKGLEWVAVISYDGSNRYYADSVKGRFTISRDNSKNTLYLQMNSLRPEDTAVYYCARDRFSAVASTPTYHNYFYMDVWGKGTTVTVSS VL: DIQMTQSPSSLSASVGDRVTITCQASQDVNNYLAWYQQKPGQAPRLLIYDASNLETGVPSRFSGSGSGTDFTLTISSLQPEDLATYYCQQYDNLPYTFGQGTKLEIKR | 0.087 | 0.074 | 0.072 | 0.077 | 0.072 | 0.083 | – | – | – | – | – | – |
| HIV-binding peptide #4 (antibody, human IgG1, kappa, V domains shown, Recombinant, fully human immunoglobulin; also called U1205DB020-4) VH: QVQLQESGGGVVQPGRSLRLSCAASGFTFSSYAIHWVRQAPGKGLEWVAVISYDGSNRYYADSVKGRFTISRDNSKNTLYLQMNSLRPEDTAVYYCARDRFSAVASTPTYHNYFYMDVWGKGTTVTVSS VL: DIQMTQSPSSLSASVGDRVTITCQASQDINNYLAWYQQKPGQAPRLLIYDASNLETGVPSRFSGSGSGTDFTLTISSLQPEDLATYYCQQYDNLPYTFGQGTKLEIKR | 0.073 | 0.077 | 0.073 | 0.079 | 0.07 | 0.091 | – | – | – | – | – | – |
| HIV-binding peptide #2 (antibody, human IgG1, kappa, V domains shown, Recombinant, fully human immunoglobulin; also called U1205DB020-2) VH: QVQLQESGGGVVQPGRSLRLSCAASGFTFSSYAIHWVRQAPGKGLEWVAVISYDGSNRYYADSVKGRFTISRDNSKNTLYLQMNSLRPEDTAVYYCARDRFSAVASTPTYHNYFYMDVWGKGTTVTVSS VL: DIQMTQSPSSLSASVGDRVTITCQASQDINNYLAWYQQKPGQAPRLLIYDASNLETGVPSRFSGSGSGTDFTLTISSLQPEDLATYYCQQYDNTPYTFGQGTKLEIKR | 0.065 | 0.074 | 0.188 | 0.076 | 0.068 | 0.075 | – | – | – | – | – | – |
| HIV-binding peptide #11Q (antibody, V domains shown, Heavy chain only with variant CH1/CH2 (hinge cysteines replaced by serines)) VH: QVQLQESGGGVVQPGRSLRLSCAASGFTFSSYAIHWVRQAPGKGLEWVAVISYDGSNRYYADSVKGRFTISRDNSKNTLYLQMNSLRPEDTAVYYCARDRFSAVASTPTYHNYFYMDVWGKGTTVTVSS | 0.092 | 0.119 | 0.127 | 0.241 | 0.441 | 0.104 | – | – | – | – | – | – |
